Test: soluble on expression in E. coli; label from the status in PepcDB or PDB records

| Sequence | soluble on expression in E. coli |
| --- | --- |
| MNIQNIRTLLDTVAVPNTARTLGGEKAVRSVEQRSDGIHIALHFGFPVAHIASETADRIQEILMPETGDTHIHLSMDTEIGTHKVQPGVTTIKGVKNIIAVASGKGGVGKSTTTANLAAAMARMGARVGVLDADLYGPSQPTMLGVDDRKPDQKNQKLIPVESSDGIQVMSIGFLVDTDQAVVWRGPMVSQALQQLMFQSEWDEVDYLFIDLPPGTGDIQLTLSQRIPVTGSVIVTTPQDIALIDARKAVDMFRKVNIPILGVLENMSVHICTNCGHSEALFGTDGGKDFAARLNVPLLGQLPLSLPVREAMDGGTPAQLFDEHPAIARIYTDAAFQIALSIADKGKDFSSRFPKIVVE | not soluble |
| MNIVALHVVLYHPEIPANTGNIARTCAATNTTLHLIRPLGFSTDDKMLKRAGLDYWEFVNVVYHDSLEELFEAYKKGKFFFITKFGQQPHTSFDYTDLDEDYFFVFGRETSGLPKDLIQNNMDRCLRLPMTEHVRSLNLSNTAAILVYEALRQQNYRDLK | soluble |
| MNKALSVENLGFYYQAENFLFQQLNFDLNKGDILAVLGQNGCGKSTLLDLLLGIHRPIQGKIEVYQSIGFVPQFFSSPFAYSVLDIVLMGRSTHINTFAKPKSHDYQVAMQALDYLNLTHLAKREFTSLSGGQRQLILIARAIASECKLILLDEPTSALDLANQDIVLSLLIDLAQSQNMTVVFTTHQPNQVVAIANKTLLLNKQNFKFGETRNILTSENLTALFHLPMFEQQAQYKESFFTHFVPLYKTLLK | soluble |
| MNKDQSKIPQATAKRLPLYYRFLKNLHASGKQRVSSAELSDAVKVDSATIRRDFSYFGALGKKGYGYNVDYLLSFFRKTLDQDEMTDVILIGVGNLGTAFLHYNFTKNNNTKISMAFDINESKIGTEVGGVPVYNLDDLEQHVKDESVAILTVPAVAAQSITDRLVALGIKGILNFTPARLNVPEHIRIHHIDLAVELQSLVYFLKHYSVLEEIE | soluble |
| MNKEEIILSAKNWMHSHFENETTGHDWSHIKRVWKLSKEIQSKEGGDLFTIELAALFHDYSDIKLTTDEQEATKTLINWMETKEIPSELIKKIIRIIQSVSFKKGKNTFKALTIEEKIVQDADRLDAIGAIGIARTFTYGGAHNREIANQNNPKNTTLQHFYDKLLLIKDQLNTETAKTIAKEKQKIMQDFIQALEKELKVLEHHHHHH | soluble |
| MNKEKEQQLNEALVLFSFAYKTFTEEPDLIIKKYGIQRIHHRILFFVARFPGLSVNELLKLLEISKQALHKPMHILINKGLIFSKESDYDRRIKEIFLTNEGERLEKEISNIQREHLLSIFSQFHNGDEKSWLEIMRQLSLKRLGYAAWNKKK | not soluble |
| MNKFKGNKVVLIGNGAVGSSYAFSLVNQSIVDELVIIDLDTEKVRGDVMDLKHATPYSPTTVRVKAGEYSDCHDADLVVICAGARQKPGETRLDLVSKNLKIFKSIVGEVMASKFDGIFLVATNPVDILAYATWKFSGLPKERVIGSGTILDSARFRLLLSEAFDVAPRSVDAQIIGEHGDTELPVWSHANIAGQPLKTLLEQRPEGKAQIEQIFVQTRDAAYDIIQAKGATYYGVAMGLARITEAIFRNEDAVLTVSALLEGEYEEEDVYIGVPAVINRNGIRNVVEIPLNDEEQSKFAHSAKTLKDIMAEAEELK | soluble |
| MNKIKILSITLEKRIISKNENDHSHQVIGQETEMTSKLEIRHKQRQDEIINAARRCFRRCGFHAASMSQIASEAQLSVGQIYRYFANKDAIIEEMVRRIIDFRIAQMDIDARTDHFPEVLALRKSLNEDDDALMLEVAAEATRNPRVMAMLEEADARMFANGCAHMKRMHPHLSDEHIRCCVEVFATMMEGTVYRRLTPQKSDPQHLQEIYQDIVSMLINK | not soluble |
| MNKILIAAASSGTGKTTVTLGIMHALKKRGLRVQPFKVGPDYIDTNYHQAITGVASINLDSFLIDDDAMLAALFEKHGQSADISVIEGVMGLFDGLGIDRDNSSTSFIAKCTKTPVILVVDGKAISTSAAAIVDGFNRFDPELTIAGVIINRVASENHFSLIKGAIERYTDVPVLGYLPKNAAVALPERHLGLVPKEEMTELETKWEVLGDLIAEHVDLDRLLAISKTGAKLTVHPPEIQVPDFSGMRVAYALDAAFHFYYQDNLDFIRSTGATLIPFSPLEEREVPDADFIYIGGGFPEVFAERLAKNKSMHESILAAHEQGKPIYAECGGLMYLGSSLEMEAESYEMVGVFDGVSKMTTRLRKFGYCIAEPLEDTLLGKKGTAIRGHEFHHSVFETTEPTRMKLTKKRDGETVKEWHGGYQKGNTFASYLHIHFYQNLAMITHMFGAIERLEHHHHHH | soluble |
| MNKKHVVILGAGYAGLKTLRELQKGAKDVEITLVDRNNYHYEATDLHEVAAGTQPAEKITYNIMDVVDEKMTTFIQGTVKTIDAATQTVALEDGQTINYDYLVVSLGFESESFGIPGVQEHALQMVDVKTALNVYEHIQEQMRQYKATQNEEFLKIVVCGAGFTGIELLGSLVENKPKFAEIAGVSADQIQIYCVEAVTRLLPMFNEKLANYGVQLLKDSAIHLLLGKPIKEIKPGAVVYQDNEAGDLAELSAKTIIWTTGVSGSHVVGDSGFEARRGRVMVQPDLTDANHSNVYIIGDCSAVMDTETNRPYPTTAQIALKMGAHAAKNIQAQLKGEATKPFSFKSQGSVCSVGNTRALGIVGKTDIKGYPASFMKKIIMNKALFETGGTKEMMAKGRFDLYH | not soluble |
| MNKLLTSKSEIIERKIRYDSTTVEHTCLLLEKQLRSIVLFHEVQYSFTMNTHDSSLTIPKGSYTIAYYWEDRPYNLYIWRDKDGMYVGSYFNVVKNTQITDELVSFEDLIIDILVLPSGEYFILDEDELPESLEEFEDGYVNEALHVLEEIIQKTLPQMIVETERVRLN | not soluble |
| MNKQRFVVIDVETTGNSPKKGDKIIQIAAVVIENGQITERFSKYINPNKSIPAFIEQLTGISNQMVENEQPFEAVAEEVFQLLDGAYFVAHNIHFDLGFVKYELHKAGFQLPDCEVLDTVELSRIVFPGFEGYKLTELSEELQLRHDQPHRADSDAEVTGLIFLEILEKLRQLPYPTLKQLRRLSQHFISDLTHLLDMFINENRHTEIPGYTRFSSFSVREPEAIDVRINEDENFSFEIESWEAGNEKALSELMPGYEKRDGQMMMMREVADAFANREHALIEAPPGIGKTIGYLIPAALFAKKSKKPVIISTYSTLLQQQILTKDLPIVQDLFPFPVTAAILKGQSHYLCLYKFEQVLHEEDDNYDAVLTKAQLLVWLTETNTGDVAELNLPSGGKLLWDRLAYDDDSYKRSRSEHVIGFYERAKQIAMRSDLVITNHSLLLTDEGSHKKRLPESGTFIIDEAHHFERAASEHLGKRATYIELHTKLSRIGTLKEQGLLKKMRQLFQRNSLPVDSFFELEEWLQHVQAESDAFFSSVHSFVKRRKPKEDLNRLVFKVNKESQDKSWSILTDGAERLCSMLTHLQQLFEAQSSLMEKHLKGMKSKTVFLADEYQRSMKGLQHYCQTLQKLFFGSDDDEAVWIEIDAKGAKNAVAIYAQPLEPGELLADQFFARKNSVVLTSATLTVEGSFQFMIERLGLSDFFPRTMRIESPFSYDERMQVMIPKEMKSIQDTGQPEFIQDTARYIELMAKEKQPKILVLFTSHDMLKKVHQELKHNMSASGIQLLAQGITGGSPGKLMKTFKTSNQAILLGTNHFWEGVDFPGDELTTVMIVRLPFRSPDHPLHAAKCELARKKGKNPFQTVSLPEAVLTFRQGIGRLLRSAGDKGTIIILDRRIKTAGYGRLFLDALPTTSVSEMTDSELEAY | not soluble |
| MNLEPPKAEIRSATRVMGGPVTPRKGPPKFKQRQTRQFKSKPPKKGVQGFGDDIPGMEGLGTDITVICPWEAFNHLELHELAQYGII | soluble |
| MNLNTPVEIPSGFTPISHAQQLLIMGSCFAENIGTLLAENKFRIDINPFGILYNPRSISMALREIISQKQYKASDLFLHRECWHSPMHHGSFSAATLADTLRNIQSRVEQAHKELKQLDRLMLTFGTAYVYEQKETGKVVANCHKLPEKNFIRRRLEIDEIVEDYTLLLDELISLNPQLKILFTVSPIRHIRDGMHANQLSKSVLLLAIDRLMQRYPQVTCYFPSYEIVLDELRDYRFYADDMVHPSTLTVNYLWERFSETFFTPETQSLIKECET | soluble |
| MNLSFKIFDISNTQRSKAKKVQGKKYEIFLNENEHSLITPKVSFKEILRYYYLYPKNAIPSFKLPFFKPDLSGFSTPHITWLGHSSLFISFKEYKILIDPIFNTHASPISFINKAFKNAPVYNINDFNEIFAVIITHSHFDHLDAKSVKALKDKAKFFITPLKVGNYLKSYGVSEKKIIELDWWSGIEFGDLKIMATPAQHSSSRGDGKNKTLWASFVMEFLSVDKRVFFSADGGYFTHFKKIGEYFGSFDLACLESGQFNIAWPYSHSFPEQILKEAKDLNAKAVMPIHWGRFLAGTHAWNEVVKFLYENLDLPLITPKMGEAYEVGAKFKQDFWWKEELEHHHHHH | not soluble |
| MNLSNHFLIAMPDMEDAFFSQSVVYICKHDEDGALGIAINKPSPITMDMIFSATGKNIPMRMQHDSVMMGGPVQVERGYVVHTPIGNWQSSIGVSDNIALTSSRDVIENISREGAVDKALISIGYSSWSKGQLERELADNAWLTVPADEHILFDIPYEHRYAAAFAKLGIDPLALFSGAGHA | not soluble |
| MNLSTKQKQHLKGLAHPLKPVVLLGSNGLTEGVLAEIEQALEHHELIKVKIATEDRETKTLIVEAIVRETGACNVQVIGKTLVLYRPTKERKISLPR | not soluble |
| MNMLEKIQSQLEHLSKSERKVAEVILASPDNAIHSSIAALALEANVSEPTVNRFCRSMDTRGFPDFKLHLAQSLANGTPYVNRNVNEDDSVESYTGKIFESAMATLDHVRHSLD | not soluble |
| MNNELPDDIELLKAMLRKQQSRLRQYACQVAGYEQEIERLKAQLDRLRRMLFGQSSEKKRHKLENQIRQAEKRLSELENRLNTARNLLEDASSVTDSPDTSPPSENPIASKPESPGRKSSRKPLPAELPRETHRLLPAETSCPACGGVLKEMGETISEQLDIINTAFKVIETIRPKLACSRCDVIGTTSS | not soluble |
| MNNFKLHTPTRILFGKGAIVDLRDQIPQDARVLITYGGGSVKKTGVLAQVQEALKGLDVREFGGIEPNPSYETLMKAVQLVRDENITFLLAVGGGSVLDGTKFIAAAAQYTDGVDPWHILETGGTEIRSAIPMGSVLTLPATGSESNAGAVISRKTTGDKQAFHSSFVQPVFAVLDPVYTYTLPPRQVANGVVDAFVHTVEQYVTYPVNGKIQDRFAEGILLTLIEEGPKALQEPENYDVRANVMWAATQALNGLIGAGVPQDWATHMLGHELTAMHGLDHAQTLAIVLPALWNEKRDVKRAKLLQYAERVWNITDGSDDERIDAAIAATRRFFEQMGVPTHLSDYGLDGSTIPALLAKLEAHGCINLGENQDITLDVSRRIYEAAR | not soluble |
| MNNIGVPAREVDVVVTGAGQAGLSSAFHLRRTGFEPERDFVVLDHAPRPGGAWQFRWPSLTYRKVHGMHALPGMELTDADPSRPSSEVIAEYFDTYERTFDLRVRRPVDVTAVREGEGGRLLVQTSDGTWATRALINATGTWDRPFWPRYPGQESFRGRQLHTAQYPGPEEFAGQRVVVVGGGASGTQHLMEIAPYAASTTWVTRRPPVFREGPFSEDVGRAAVAMVEERVRRGLPPRSVVSVTGLPLNDAVRRAIADGVLDRLPVFDRITPDGVEWDDGRRVAADVILWATGFRAAIDHLAPLRLRAPGGGIRVEGTRVVADPRIHLVGYGPSASTIGANRAGRAAVRDIRRLLAGEPLTVLEHHHHHH | soluble |
| MNNKLVRSLKYNDVYGELYSYENSSALTVIFPGINYGHEKPLLYYARKAAAQNNIDILCINYKNKISWEDIGKQSIEDVAIEIKGIIKNVIEKKYDNIYFLGKSVGTEIAGCTSSKLNIDNIKFLYLTPIEETLKYIVDRKCIVVSGTKDEFFKSECINKIRENKNVKLMLFEGANHSLEIKDDIIRSLRILDNVAQLYLDFFK | not soluble |
